Source: article PMC3580236

Biological target: T1, Rev1 G193R (1-746) (Saccharomyces cerevisiae (expression …, UniProt P12689 1-746, G193R))
T1 sequence: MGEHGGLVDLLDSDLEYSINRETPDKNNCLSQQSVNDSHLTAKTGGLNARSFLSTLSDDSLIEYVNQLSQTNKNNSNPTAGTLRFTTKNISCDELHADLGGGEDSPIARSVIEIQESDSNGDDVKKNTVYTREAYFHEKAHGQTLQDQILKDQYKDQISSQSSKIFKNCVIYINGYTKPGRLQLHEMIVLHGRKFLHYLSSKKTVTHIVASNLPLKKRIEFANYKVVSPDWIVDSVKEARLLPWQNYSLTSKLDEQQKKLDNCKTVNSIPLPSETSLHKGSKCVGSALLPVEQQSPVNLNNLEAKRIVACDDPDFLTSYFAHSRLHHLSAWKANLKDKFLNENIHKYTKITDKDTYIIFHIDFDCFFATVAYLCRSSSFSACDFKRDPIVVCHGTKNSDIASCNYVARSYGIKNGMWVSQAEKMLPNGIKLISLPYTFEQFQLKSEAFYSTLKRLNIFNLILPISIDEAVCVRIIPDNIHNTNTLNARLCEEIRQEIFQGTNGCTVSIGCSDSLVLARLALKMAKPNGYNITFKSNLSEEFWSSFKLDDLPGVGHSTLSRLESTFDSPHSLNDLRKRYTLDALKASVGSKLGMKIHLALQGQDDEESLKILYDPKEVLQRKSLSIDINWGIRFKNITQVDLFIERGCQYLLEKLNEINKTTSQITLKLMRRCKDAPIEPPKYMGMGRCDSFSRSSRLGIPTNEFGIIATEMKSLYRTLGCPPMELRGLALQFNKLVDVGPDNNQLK
Assay: pre-steady-state burst amplitude titration

B1: 24/45-mer primer-template (dsDNA)
DNA 1: GCCTCGCAGCCGTCCAACCAACTC
DNA 2: GGACGGCATTGGATCGACCTGGAGTTGGTTGGACGGCTGCGAGGC
Kd: 16 ± 5 nM
